Measured values: patent US20260049126A1 (UCB, published 2026)
Read-outs that look alike come from different tables or passages of the source.

Legend:
GDF8 (myostatin) [1] = molecular target: GDF8 (myostatin) (UniProt O14793); assay: SPR (Biacore T200), GDF8 amine-coupled, FST-Fab as analyte, single-cycle kinetics
Activin B [2] = molecular target: T1, Activin B (UniProt P09529 293-407); assay: SPR (Biacore T200), FST-Fab captured on anti-F(ab')2, Activin B as analyte, 1:1 model
T1 sequence (looked up): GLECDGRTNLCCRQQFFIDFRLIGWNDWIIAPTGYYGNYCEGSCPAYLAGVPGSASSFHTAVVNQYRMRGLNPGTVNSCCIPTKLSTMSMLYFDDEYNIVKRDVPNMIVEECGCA
Method: (§1) The binding kinetics of the fusion proteins to various targets (see below) were determined by surface plasmon resonance using a Biacore T200 (Cytiva). For each type of assay, kinetic parameters were determined using a 1:1 binding model using Biacore T200 Evaluation software (version 3.0).
(§2) For the assessment of binding to Activin A and Activin B (R&D Systems), a goat anti-human F(ab′)₂ fragment specific antibody (Jackson ImmunoResearch) was first immobilised on a CM5 Sensor Chip via amine coupling chemistry to a level of approximately 5000RU. Using a standard multi-cycle kinetic approach, each analysis cycle consisted of capture of FST-Fab to the anti-F(ab′)₂ surface followed by injection of analyte and finally surface regeneration using 60s injections of 50 mM HCl, and 5 mM NaOH. […] The binding response of a parallel blank surface was subtracted, and buffer blank injections were included to subtract instrument noise and drift.

Activin A [3] = molecular target: T2, Activin A (UniProt P08476 311-426); assay: SPR (Biacore T200), FST-Fab captured on anti-F(ab')2, Activin A as analyte, 1:1 model
T2 sequence (looked up): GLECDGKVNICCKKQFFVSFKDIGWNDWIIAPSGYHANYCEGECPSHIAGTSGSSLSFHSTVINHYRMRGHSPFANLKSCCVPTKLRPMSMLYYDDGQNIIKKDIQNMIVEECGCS
Method: as §1, §2

Activin A [4] = molecular target: T2, Activin A; assay: cell-based or functional assay
GDF8 (myostatin) [5] = molecular target: T3, GDF8 (myostatin) (UniProt O14793 267-375); assay: cell-based or functional assay
Activin B [6] = molecular target: T1, Activin B; assay: cell-based or functional assay
GDF11 [7] = molecular target: T4, GDF11 (UniProt O95390 299-407); assay: cell-based or functional assay
Activin A [8] = molecular target: T2, Activin A; assay: cell-based or functional assay; remark: listed apart in the source
GDF8 (myostatin) [9] = molecular target: T3, GDF8 (myostatin); assay: cell-based or functional assay; remark: listed apart in the source
Activin B [10] = molecular target: T1, Activin B; assay: cell-based or functional assay; remark: listed apart in the source
GDF11 [11] = molecular target: T4, GDF11; assay: cell-based or functional assay; remark: listed apart in the source
Activin A [12] = molecular target: T2, Activin A; assay: cell-based or functional assay; remark: listed apart in the source
GDF8 (myostatin) [13] = molecular target: T3, GDF8 (myostatin); assay: cell-based or functional assay; remark: listed apart in the source
Activin B [14] = molecular target: T1, Activin B; assay: cell-based or functional assay; remark: listed apart in the source
GDF11 [15] = molecular target: T4, GDF11; assay: cell-based or functional assay; remark: listed apart in the source
GDF8 (myostatin) [16] = molecular target: T3, GDF8 (myostatin); assay: SPR (Biacore T200), GDF8 amine-coupled, FST-Fab as analyte, single-cycle kinetics
Method: as §1
(§3) For the assessment of binding to GDF8 and GDF11 (R&D Systems), each one of GDF8 and GDF11 was immobilised by amine coupling chemistry to the surface of a CM5 sensorchip to achieve an immobilisation level of approximately 250RU. For both GDF8 and GDF11, analysis was conducted using a single-cycle kinetics approach with sequential 180s injections of FST-Fab at increasing concentrations (0.8, 4, 20, 100 and 500 nM) in HBS-EP+ running buffer (Cytiva) at 25° C. at a flow rate of 30 μl/min, followed by monitoring the dissociation for 1800s. The binding response of a parallel blank surface was subtracted, and a series of buffer blank injections were conducted to subtract instrument noise and drift.

Human Albumin = molecular target: T5, Human Albumin (human, UniProt P02768 25-609); assay: SPR (Biacore T200), fusion protein captured on anti-F(ab')2, albumin as analyte, 1:1 model
T5 construct: Analyte in the Biacore albumin assay; also called human serum albumin; HSA
Method: as §1
For the assessment of binding to albumin: A goat anti-human F(ab′)2 fragment specific antibody (Jackson ImmunoResearch) was first immobilised on a CM5 Sensor Chip via amine coupling chemistry to a level of approximately 5000RU. Using a standard multi-cycle kinetic approach, each analysis cycle consisted of capture of the fusion protein to be tested to the anti-F(ab′)2 surface followed by injection of albumin and finally surface regeneration using 60s injections of 50 mM HCl, and 5 mM NaOH. […] The binding response of a parallel blank surface was subtracted and buffer blank injections were included to subtract instrument noise and drift.

GDF11 [17] = molecular target: T4, GDF11; assay: SPR (Biacore T200), GDF11 amine-coupled, FST-Fab as analyte, single-cycle kinetics
Method: as §1, §3

Activin A [18] = molecular target: T2, Activin A; assay: cell-based or functional assay; remark: listed apart in the source
GDF8 (myostatin) [19] = molecular target: T3, GDF8 (myostatin); assay: cell-based or functional assay; remark: listed apart in the source
Activin B [20] = molecular target: T1, Activin B; assay: cell-based or functional assay; remark: listed apart in the source
GDF11 [21] = molecular target: T4, GDF11; assay: cell-based or functional assay; remark: listed apart in the source

FST288-Fab
Kd (GDF8 (myostatin) [1]): 240 pM
Kd (Activin B [2]): 71 pM
Kd (Activin A [3]): 32 pM

FST315-Fab
Kd (GDF8 (myostatin) [1]): 150 pM
Kd (Activin B [2]): 69 pM
Kd (Activin A [3]): 200 pM

B1: FST315WT (other)
chain: GNCWLRQAKNGRCQVLYKTELSKEECCSTGRLSTSWTEEDVNDNTLFKWMIFNGGAPNCIPCKETCENVDCGPGKKCRMNKKNKPRCVCAPDCSNITWKGPVCGLDGKTYRNECALLKARCKEQPELEVQYQGRCKKTCRDVFCPGSSTCVVDQTNNAYCVTCNRICPEPASSEQYLCGNDGVTYSSACHLRKATCLLGRSIGLAYEGKCIKAKSCEDIQCTGGKKCLWDFKVGRGRCSLCDELCPDSKSDEPVCASDNATYASECAMKEAACSSGVLLEVKHSGSCNSISEDTEEEEEDEDQDYSFPISSILEW
IC50 (geomean), Smad2/3 reporter gene assay, HEK-Blue TGFb cells (Activin A [4]): 310 pM
IC50 (geomean), Smad2/3 reporter gene assay, HEK-Blue TGFb cells (GDF8 (myostatin) [5]): 3080 pM
IC50 (geomean), Smad2/3 reporter gene assay, HEK-Blue TGFb cells (Activin B [6]): 1570 pM
IC50 (geomean), Smad2/3 reporter gene assay, HEK-Blue TGFb cells (GDF11 [7]): 8370 pM
IC50 (read off the curve) (Activin A [8]): ~400 pM
IC50 (read off the curve) (GDF8 (myostatin) [9]): ~3000 pM
IC50 (read off the curve) (Activin B [10]): ~2000 pM
IC50 (read off the curve) (GDF11 [11]): ~6000 pM

B2: FST315HBM-Fab (other)
heavy: GNCWLRQAKNGRCQVLYKTELSKEECCSTGRLSTSWTEEDVNDNTLFKWMIFNGGAPNCIPCKETCENVDCGPGKACRMNAANKPRCVCAPDCSNITWKGPVCGLDGKTYRNECALLKARCKEQPELEVQYQGRCKKTCRDVFCPGSSTCVVDQTNNAYCVTCNRICPEPASSEQYLCGNDGVTYSSACHLRKATCLLGRSIGLAYEGKCIKAKSCEDIQCTGGKKCLWDFKVGRGRCSLCDELCPDSKSDEPVCASDNATYASECAMKEAACSSGVLLEVKHSGSCNSISEDTEEEEEDEDQDYSFPISSILEWSGGGGSEVQLLESGGGLVQPGGSLRLSCAVSGIDLSNYAINWVRQAPGKGLEWIGIIWASGTTFYATWAKGRFTISRDNSKNTVYLQMNSLRAEDTAVYYCARTVPGYSTAPYFDLWGQGTLVTVSSASTKGPSVFPLAPSSKSTSGGTAALGCLVKDYFPEPVTVSWNSGALTSGVHTFPAVLQSSGLYSLSSVVTVPSSSLGTQTYICNVNHKPSNTKVDKKVEPKSC
light: DIQMTQSPSSVSASVGDRVTITCQSSPSVWSNFLSWYQQKPGKAPKLLIYEASKLTSGVPSRFSGSGSGTDFTLTISSLQPEDFATYYCGGGYSSISDTTFGGGTKVEIKRTVAAPSVFIFPPSDEQLKSGTASVVCLLNNFYPREAKVQWKVDNALQSGNSQESVTEQDSKDSTYSLSSTLTLSKADYEKHKVYACEVTHQGLSSPVTKSFNRGEC
notes: paired with the Fab light chain; also called FST-Fab1; FST-Fab 1
fold potency against the parent FST315WT, Smad2/3 reporter gene assay (Activin A [12]): 3 fold
fold potency against the parent FST315WT, Smad2/3 reporter gene assay (GDF8 (myostatin) [13]): 2 fold
fold potency against the parent FST315WT, Smad2/3 reporter gene assay (Activin B [14]): 3 fold
fold potency against the parent FST315WT, Smad2/3 reporter gene assay (GDF11 [15]): 2 fold
IC50 (geomean), Smad2/3 reporter gene assay, HEK-Blue TGFb cells (Activin A [4]): 100 pM
IC50 (geomean), Smad2/3 reporter gene assay, HEK-Blue TGFb cells (GDF8 (myostatin) [5]): 1400 pM
IC50 (geomean), Smad2/3 reporter gene assay, HEK-Blue TGFb cells (Activin B [6]): 460 pM
IC50 (geomean), Smad2/3 reporter gene assay, HEK-Blue TGFb cells (GDF11 [7]): 4240 pM
Kd (Activin B [2]): 11 pM
IC50 (read off the curve) (GDF8 (myostatin) [9]): ~1000 pM
IC50 (read off the curve) (Activin B [10]): ~600 pM
IC50 (read off the curve) (GDF11 [11]): ~2000 pM
Kd (GDF8 (myostatin) [16]): 2300 pM
Kd (Human Albumin): 2600 pM
Kd (Activin A [3]): 11 pM
Kd (GDF11 [17]): 1250 pM

B3: FST288WT (other)
chain: GNCWLRQAKNGRCQVLYKTELSKEECCSTGRLSTSWTEEDVNDNTLFKWMIFNGGAPNCIPCKETCENVDCGPGKKCRMNKKNKPRCVCAPDCSNITWKGPVCGLDGKTYRNECALLKARCKEQPELEVQYQGRCKKTCRDVFCPGSSTCVVDQTNNAYCVTCNRICPEPASSEQYLCGNDGVTYSSACHLRKATCLLGRSIGLAYEGKCIKAKSCEDIQCTGGKKCLWDFKVGRGRCSLCDELCPDSKSDEPVCASDNATYASECAMKEAACSSGVLLEVKHSGSCN
IC50 (geomean), Smad2/3 reporter gene assay, HEK-Blue TGFb cells (Activin A [4]): 140 pM
IC50 (geomean), Smad2/3 reporter gene assay, HEK-Blue TGFb cells (GDF8 (myostatin) [5]): 730 pM
IC50 (geomean), Smad2/3 reporter gene assay, HEK-Blue TGFb cells (Activin B [6]): 450 pM
IC50 (geomean), Smad2/3 reporter gene assay, HEK-Blue TGFb cells (GDF11 [7]): 770 pM
IC50 (read off the curve) (Activin A [18]): ~400 pM
IC50 (read off the curve) (GDF8 (myostatin) [19]): ~2000 pM
IC50 (read off the curve) (Activin B [20]): ~500 pM
IC50 (read off the curve) (GDF11 [21]): ~2000 pM
